Reference: patent US20200324001A1 (NATIONAL UNIVERSITY CORPORATION OKAYAMA UNIVERSITY, published 2020)

Tests used:
[1] = molecular target: T1, human recombinant mesothelin (r-MSLN) (human, UniProt Q13421 296-598, limits assumed); assay: BLI (BLItz, AR2G biosensor), unlabeled scFv against r-MSLN
T1 construct: also called recombinant MSLN; antigen r-MSLN

[2] = molecular target: T2, mesothelin (MSLN) expressed on human cancer cell lines (human, UniProt Q13421 296-598); assay: flow cytometry on Hela cells; grade of MFI ratio to control (+ = 4.9-1.5)
T2 construct: whole, on cells; also called MSLN expressed in cancer cells
T2 sequence (Q13421 other isoform, or with tags, fused parts or gaps limits assumed): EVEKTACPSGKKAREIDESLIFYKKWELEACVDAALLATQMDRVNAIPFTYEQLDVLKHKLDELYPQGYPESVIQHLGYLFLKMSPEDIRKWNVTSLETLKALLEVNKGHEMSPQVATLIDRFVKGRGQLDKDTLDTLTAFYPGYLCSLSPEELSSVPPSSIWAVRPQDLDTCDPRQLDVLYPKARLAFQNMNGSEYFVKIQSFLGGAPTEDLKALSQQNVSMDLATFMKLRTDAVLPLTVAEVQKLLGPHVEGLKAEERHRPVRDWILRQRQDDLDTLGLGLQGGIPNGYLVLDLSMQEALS
Method: (§1) A total of 28 cell lines were used for FCM analysis. The “MSLN exp ref” column indicates positive MSLN expression shown in previous studies. The “MSLN exp FCM” column indicates the ratio of the mean fluorescence intensity […] of the control; a ratio of 5 or more was indicated as “++,” a ratio of 4.9-1.5 was indicated as “+,” and a ratio of 1.4 or less is indicated as “−.”
(§2) The human cancer cell lines (Table 1) were treated with Cell Dissociation Buffer, enzyme-free, PBS (Gibco/Life Technologies, CA, USA) and harvested as single-cell suspensions. 1×10⁶ cells were washed once with cold PBS containing 2% FBS and 1 mM EDTA, and a full-length anti-human MSLN antibody, each anti-human MSLN cp3-scFv clone, or each His-tag scFv clone was used as a primary antibody. For the full-length anti-human MSLN antibody, an anti-KLH antibody (IgG2b isotype control) was used as a negative control, and an Alexa Fluor 488-labeled goat anti-mouse IgG antibody was used as a secondary antibody. […] The mean value of the fluorescence intensity (excluding the dead cell population) was obtained using BD FACSDiva software and calculated using Microsoft Excel.

[3] = molecular target: T2, mesothelin (MSLN) expressed on human …; assay: flow cytometry on 22Rv1 cells; grade of MFI ratio to control (+ = 4.9-1.5)
Method: as §1, §2

[4] = molecular target: T2, mesothelin (MSLN) expressed on human …; assay: flow cytometry on MKN45 cells; grade of MFI ratio to control (+ = 4.9-1.5)
Method: as §1, §2

[5] = molecular target: T2, mesothelin (MSLN) expressed on human …; assay: flow cytometry on MKN74 cells; grade of MFI ratio to control (+ = 4.9-1.5)
Method: as §1, §2

[6] = molecular target: T2, mesothelin (MSLN) expressed on human …; assay: flow cytometry on BxPC-3 cells; grade of MFI ratio to control (+ = 4.9-1.5)
Method: as §1, §2

[7] = molecular target: T2, mesothelin (MSLN) expressed on human …; assay: flow cytometry on CFPAC-1 cells; grade of MFI ratio to control (+ = 4.9-1.5)
Method: as §1, §2

[8] = molecular target: T2, mesothelin (MSLN) expressed on human …; assay: flow cytometry on HEC-1-A cells; grade of MFI ratio to control (+ = 4.9-1.5)
Method: as §1, §2

[9] = molecular target: T2, mesothelin (MSLN) expressed on human …; assay: flow cytometry on SK-OV-3 cells; grade of MFI ratio to control (+ = 4.9-1.5)
Method: as §1, §2

[10] = molecular target: T2, mesothelin (MSLN) expressed on human …; assay: flow cytometry on SiHa cells; grade of MFI ratio to control (++ = 5 or more)
Method: as §1, §2

[11] = molecular target: T2, mesothelin (MSLN) expressed on human …; assay: flow cytometry on NCI-H596 cells; grade of MFI ratio to control (+ = 4.9-1.5)
Method: as §1, §2

[12] = molecular target: T2, mesothelin (MSLN) expressed on human …; assay: flow cytometry on NCI-N87 cells; grade of MFI ratio to control (++ = 5 or more)
Method: as §1, §2

[13] = molecular target: T2, mesothelin (MSLN) expressed on human …; assay: flow cytometry on OVCAR-3 cells; grade of MFI ratio to control (++ = 5 or more)
Method: as §1, §2

[14] = molecular target: T2, mesothelin (MSLN) expressed on human …; assay: flow cytometry on NCI-H226 cells; grade of MFI ratio to control (++ = 5 or more)
Method: as §1, §2

[15] = molecular target: T1, human recombinant mesothelin (r-MSLN); assay: BLI (BLItz, AR2G biosensor), scFv after 89Zr labeling against r-MSLN
Method: DFO modification to each His-tag scFv was performed by incubation in bicarbonate buffer at a pH of 9.0 at 37° C. for 1 hour so that the ratio of dissolved chelating agent deferoxamine (p-SCN-Bn-DFO) to His-tag scFv was 3:1. ⁸⁹Zr was produced with a cyclotron (HM-12 cyclotron, Sumitomo Heavy Industries Ltd., Tokyo, Japan), and ⁸⁹Zr-oxalate was obtained. ⁸⁹Zr-oxalate, Na₂CO₃ (2M), and HEPES (0.5 M) were mixed so that the ratio of ⁸⁹Zr-oxalate to Na₂CO₃ (2M) to HEPES (0.5 M) was 2:1:10 and adjusted to a pH of 7.0, and the mixture was mixed with each DFO-modified His-tag scFv clone in which the solvent was replaced with gentisic acid physiological saline (5 mg/mL), followed by incubation at 37° C. for 30 minutes, thereby obtaining ⁸⁹Zr-DFO-scFvs. Unbound ⁸⁹Zr was removed by ultrafiltration using an Amicon Ultra 10K centrifugal filter. The radiochemical purity was determined by thin-layer chromatography-autoradiography (TLC-ARG) and HPLC (LC-20, Shimadzu Co., Kyoto, Japan). […] The in vitro stability of the radiolabeled scFvs after incubation in 50% human plasma/PBS at 37° C. for 6 hours was also analyzed. […] Immediately after mixing and after 6-hour incubation, a portion of the mixture of the radiolabeled scFv and the plasma was measured at 230 nm by HPLC, and the radioactivity was measured with a GABI star (Raytest, Straubenhardt, Germany). […]

[16] = molecular target: T1, human recombinant mesothelin (r-MSLN); assay: BLI (BLItz, AR2G biosensor), scFv after DFO modification against r-MSLN

T1 sequence (Q13421 other isoform, or with tags, fused parts or gaps limits assumed): as above

B1: anti-human MSLN His-tag scFv clone H1a050 (scFv)
scFv: SYELTQPPSVSVSPGQTARITCSGNALPKQYAYWYQQKPGQAPVLMIYKDSERPSGIPERFSGSSSGTTVTLTISGVQAEDEADYYCQSADSSHTYKVFGGGTKLTVLGGGGSGGGGSGGGGSGGGGSEVQLVQSGGGLVQPDRSLRLSCAASGFTFDDYAMHWVRQAPGKGLEWVSGISWNSGSIGYADSVKGRFTISRDNAKNSLYLQMNSLRAEDTALYYCAKDLGSYYGSGSGMDVWGQGTTVTVSSGG
notes: Unlabeled His-tag scFv expressed in CHO cells; also called His-tag scFv H1a050; His-Tag-scFv H1a050
Kd [1]: 4.68 nM | ratio of MFI of scFv clone H1a050 to MFI of control (flow cytometry) [2]: 1.5 to 4.9 ratio | ratio of MFI of scFv clone H1a050 to MFI of control (flow cytometry) [3]: 1.5 to 4.9 ratio | ratio of MFI of scFv clone H1a050 to MFI of control (flow cytometry) [4]: 1.5 to 4.9 ratio | ratio of MFI of scFv clone H1a050 to MFI of control (flow cytometry) [5]: 1.5 to 4.9 ratio | ratio of MFI of scFv clone H1a050 to MFI of control (flow cytometry) [6]: 1.5 to 4.9 ratio | ratio of MFI of scFv clone H1a050 to MFI of control (flow cytometry) [7]: 1.5 to 4.9 ratio | ratio of MFI of scFv clone H1a050 to MFI of control (flow cytometry) [8]: 1.5 to 4.9 ratio | ratio of MFI of scFv clone H1a050 to MFI of control (flow cytometry) [9]: 1.5 to 4.9 ratio | ratio of MFI of scFv clone H1a050 to MFI of control (flow cytometry) [10]: ≥ 5 ratio | ratio of MFI of scFv clone H1a050 to MFI of control (flow cytometry) [11]: 1.5 to 4.9 ratio | ratio of MFI of scFv clone H1a050 to MFI of control (flow cytometry) [12]: ≥ 5 ratio | ratio of MFI of scFv clone H1a050 to MFI of control (flow cytometry) [13]: ≥ 5 ratio | ratio of MFI of scFv clone H1a050 to MFI of control (flow cytometry) [14]: ≥ 5 ratio

B2: 89Zr-DFO-scFv H1a050 (scFv)
scFv: SYELTQPPSVSVSPGQTARITCSGNALPKQYAYWYQQKPGQAPVLMIYKDSERPSGIPERFSGSSSGTTVTLTISGVQAEDEADYYCQSADSSHTYKVFGGGTKLTVLGGGGSGGGGSGGGGSGGGGSEVQLVQSGGGLVQPDRSLRLSCAASGFTFDDYAMHWVRQAPGKGLEWVSGISWNSGSIGYADSVKGRFTISRDNAKNSLYLQMNSLRAEDTALYYCAKDLGSYYGSGSGMDVWGQGTTVTVSSGG
modifications: deferoxamine (p-SCN-Bn-DFO) conjugated and loaded with 89Zr; sites not stated
notes: Same polypeptide as H1a050 His-tag scFv, DFO-modified and 89Zr-labeled; also called H1a050 after 89Zr labeling; 89Zr-labeled DFO-His-tag-scFv H1a050
Kd [15]: 46.2 nM

B3: DFO-modified His-tag scFv H1a050 (scFv)
scFv: SYELTQPPSVSVSPGQTARITCSGNALPKQYAYWYQQKPGQAPVLMIYKDSERPSGIPERFSGSSSGTTVTLTISGVQAEDEADYYCQSADSSHTYKVFGGGTKLTVLGGGGSGGGGSGGGGSGGGGSEVQLVQSGGGLVQPDRSLRLSCAASGFTFDDYAMHWVRQAPGKGLEWVSGISWNSGSIGYADSVKGRFTISRDNAKNSLYLQMNSLRAEDTALYYCAKDLGSYYGSGSGMDVWGQGTTVTVSSGG
modifications: deferoxamine (p-SCN-Bn-DFO) conjugated, chelator to scFv ratio 3:1 in the reaction; sites not stated
notes: Same polypeptide as H1a050 His-tag scFv, carrying the DFO chelator; also called H1a050 after DFO modification; DFO-His-tag-scFv H1a050
Kd [16]: 3.38 nM

B4: anti-human MSLN His-tag scFv clone H2a064 (scFv)
scFv: SYELTQPPSVSVSPGQTARITCSGDALPKHYASWYQQKPGQAPVLLIYKDTERPSGIPERFSGSSSGTTVTLTISGVQAEDEADYYCQSADSSVTVVFGGGTKLTVLGGGGSGGGGSGGGGSGGGGSQVQLVQSGGGLVQPGRSLRLSCAASGFTFDDYAMHWVRQAPGKGLEWVSGISWNSGSIGYADSVKGRFTISRDNAKNSLYLQMNSLRAEDTALYYCAKDIGSSGWYGAFDIWGQGTTVTVSSGG
notes: Unlabeled His-tag scFv expressed in CHO cells; also called His-tag scFv H2a064; His-Tag-scFv H2a064
Kd [1]: 59.6 nM

B5: DFO-modified His-tag scFv H2a064 (scFv)
scFv: SYELTQPPSVSVSPGQTARITCSGDALPKHYASWYQQKPGQAPVLLIYKDTERPSGIPERFSGSSSGTTVTLTISGVQAEDEADYYCQSADSSVTVVFGGGTKLTVLGGGGSGGGGSGGGGSGGGGSQVQLVQSGGGLVQPGRSLRLSCAASGFTFDDYAMHWVRQAPGKGLEWVSGISWNSGSIGYADSVKGRFTISRDNAKNSLYLQMNSLRAEDTALYYCAKDIGSSGWYGAFDIWGQGTTVTVSSGG
modifications: deferoxamine (p-SCN-Bn-DFO) conjugated, chelator to scFv ratio 3:1 in the reaction; sites not stated
notes: Same polypeptide as H2a064 His-tag scFv, carrying the DFO chelator; also called H2a064 after DFO modification; DFO-His-tag-scFv H2a064
Kd [16]: 114 nM

B6: 89Zr-DFO-scFv H2a064 (scFv)
scFv: SYELTQPPSVSVSPGQTARITCSGDALPKHYASWYQQKPGQAPVLLIYKDTERPSGIPERFSGSSSGTTVTLTISGVQAEDEADYYCQSADSSVTVVFGGGTKLTVLGGGGSGGGGSGGGGSGGGGSQVQLVQSGGGLVQPGRSLRLSCAASGFTFDDYAMHWVRQAPGKGLEWVSGISWNSGSIGYADSVKGRFTISRDNAKNSLYLQMNSLRAEDTALYYCAKDIGSSGWYGAFDIWGQGTTVTVSSGG
modifications: deferoxamine (p-SCN-Bn-DFO) conjugated and loaded with 89Zr; sites not stated
notes: Same polypeptide as H2a064 His-tag scFv, DFO-modified and 89Zr-labeled; also called H2a064 after 89Zr labeling; 89Zr-labeled DFO-His-tag-scFv H2a064
Kd [15]: 78.2 nM
